Experimental data published in publication PMC9249894 (2022).

Biological target: Ubiquitin (Homo sapiens, UniProt P0CG48)
Experiment: NMR titration

B1: CIN85 SH3c 263-333 (protein)
chain: DSRTKSKDYCKVIFPYEAQNDDELTIKEGDIVTLINKDCIDVGWWEGELNGRRGVFPDNFVKLLPPDFEKE
For B1, the Kd was 370 µM.
